Test results taken from doi:10.1101/430827 (bioRxiv, 2018).

What was measured:
[1] = target: M2345/WT IRSp53 heterodimer (UniProt Q9UQB8); assay: co-IP
[2] = target: WT/M2345 IRSp53 heterodimer (UniProt Q9UQB8); assay: co-IP
[3] = target: FLAG-Eps8/pIRSp53 complex (human | , UniProt Q12929 1-822; Q9UQB8-4 1-521, phosphorylated (pIRSp53, as m4)); assay: pull-down
crystal structure = target: the molecule itself; assay: crystal structure
2xFLAG-Eps8 = 2xFLAG-Eps8 (human, UniProt Q12929 1-822); assay: other fluorescence titration
Sequence of 2xFLAG-Eps8 (Q12929 whole entry): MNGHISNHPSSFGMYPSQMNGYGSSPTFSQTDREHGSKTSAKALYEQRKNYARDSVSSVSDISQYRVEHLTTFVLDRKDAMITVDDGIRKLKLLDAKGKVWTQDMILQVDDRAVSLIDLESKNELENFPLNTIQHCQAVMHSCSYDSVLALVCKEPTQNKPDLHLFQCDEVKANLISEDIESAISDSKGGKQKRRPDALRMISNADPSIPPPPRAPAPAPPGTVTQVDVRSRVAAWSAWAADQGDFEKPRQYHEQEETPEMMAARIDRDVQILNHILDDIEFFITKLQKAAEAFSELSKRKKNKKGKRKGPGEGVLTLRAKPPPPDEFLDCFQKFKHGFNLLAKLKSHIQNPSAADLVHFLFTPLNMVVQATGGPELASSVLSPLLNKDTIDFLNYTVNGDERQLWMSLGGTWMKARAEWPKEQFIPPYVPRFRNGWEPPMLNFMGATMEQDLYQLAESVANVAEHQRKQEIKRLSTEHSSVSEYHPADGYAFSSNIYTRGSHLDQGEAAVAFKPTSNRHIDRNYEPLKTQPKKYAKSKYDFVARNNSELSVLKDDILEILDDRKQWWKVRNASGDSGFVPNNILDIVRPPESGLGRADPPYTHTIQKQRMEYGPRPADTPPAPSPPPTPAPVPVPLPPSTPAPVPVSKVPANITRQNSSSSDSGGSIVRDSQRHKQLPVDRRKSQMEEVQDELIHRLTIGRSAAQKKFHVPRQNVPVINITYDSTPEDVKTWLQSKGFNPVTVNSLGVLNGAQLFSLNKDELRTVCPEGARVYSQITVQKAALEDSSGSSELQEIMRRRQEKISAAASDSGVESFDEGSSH

Sequence of FLAG-Eps8/pIRSp53 complex (Q12929 whole entry, one chain of several): as the sequence (Q12929 whole entry) above

endogenous 14-3-3 (all isoforms included) (from UniProt P27348 1-245) (natural protein)
percent of the amount that coimmunoprecipitates with WT/WT IRSp53 [1]: 50%
percent of the amount that coimmunoprecipitates with WT/WT IRSp53 [2]: 50%

B1: 14-3-3θ (natural protein, human)
chain: MEKTELIQKAKLAEQAERYDDMATCMKAVTEQGAELSNEERNLLSVAYKNVVGGRRSAWRVISSIEQKTDTSDKKLQLIKDYREKVESELRSICTTVLELLDKYLIANATNPESKVFYLKMKGDYFRYLAEVACGDDRKQTIDNSQGAYQEAFDISKKEMQPTHPIRLGLALNFSVFYYEILNNPELACTLAKTAFDEAIAELDTLNEDSYKDSTLIMQLLRDNLTLWTSDSAGEECDAAEGAEN
binding result [3]: binds
binding result (crystal structure): binds

B2: pIRSp53FS (natural protein, UniProt Q9UQB8-4 1-521, looked up)
chain: MSLSRSEEMHRLTENVYKTIMEQFNPSLRNFIAMGKNYEKALAGVTYAAKGYFDALVKMGELASESQGSKELGDVLFQMAEVHRQIQNQLEEMLKSFHNELLTQLEQKVELDSRYLSAALKKYQTEQRSKGDALDKCQAELKKLRKKSQGSKNPQKYSDKELQYIDAISNKQGELENYVSDGYKTALTEERRRFCFLVEKQCAVAKNSAAYHSKGKELLAQKLPLWQQACADPSKIPERAVQLMQQVASNGATLPSALSASKSNLVISDPIPGAKPLPVPPELAPFVGRMSAQESTPIMNGVTGPDGEDYSPWADRKAAQPKSLSPPQSQSKLSDSYSNTLPVRKSVTPKNSYATTENKTLPRSSSMAAGLERNGRMRVKAIFSHAAGDNSTLLSFKEGDLITLLVPEARDGWHYGESEKTKMRGWFPFSYTRVLDSDGSDRLHMSLQQGKSSSTGNLLDKDDLAIPPPDYGAASRAFPAQTASGFKQRPYSVAVPAFSQGLDDYGARSMSSGSGTLVCTV
modifications: natively phosphorylated in HEK293T cells; C230 and C519 labeled with the donor/acceptor pair fluorescein maleimide/rhodamine maleimide
Kd (2xFLAG-Eps8): 42 nM
